{"source": "paper PMC6028960", "about": "“The kinetochore proteins CENP-E and CENP-F directly and specifically interact with distinct BUB mitotic checkpoint Ser/Thr kinases” (The Journal of Biological Chemistry, 2018)", "binders": {"B1": {"name": "mCherry-CENP-F(2866–2990) (domain or fragment, human, UniProt P49454 2770-2894, looked up)", "chain": "LKKTKMDNLKYVNQLKKENERAQGKMKLLIKSCKQLEEEKEILQKELSQLQAAQEKQKTGTVMDTKVDELTTEIKELKETLEEKTKEADEYLDKYCSLLISHEKLEKAKEMLETQVAHLCSQQSK", "notes": "Dimer by sedimentation velocity AUC; source: E. coli BL21 (DE3) RP plus, purified (HisTrap, Superdex 75 SEC); not shown: mCherry, N-terminal, kept"}, "B2": {"name": "mCherry-CENP-F(2922–2990) (domain or fragment, human, UniProt P49454 2826-2894, looked up)", "chain": "QKTGTVMDTKVDELTTEIKELKETLEEKTKEADEYLDKYCSLLISHEKLEKAKEMLETQVAHLCSQQSK", "notes": "as for B1"}, "B3": {"name": "eGFP-CENP-E^2070-C (domain or fragment, human, UniProt Q02224 2070-2701, looked up)", "chain": "RQNHQVKPEKRLLSDGQQHLTESLREKCSRIKELLKRYSEMDDHYECLNRLSLDLEKEIEFQKELSMRVKANLSLPYLQTKHIEKLFTANQRCSMEFHRIMKKLKYVLSYVTKIKEEQHESINKFEMDFIDEVEKQKELLIKIQHLQQDCDVPSRELRDLKLNQNMDLHIEEILKDFSESEFPSIKTEFQQVLSNRKEMTQFLEEWLNTRFDIEKLKNGIQKENDRICQVNNFFNNRIIAIMNESTEFEERSATISKEWEQDLKSLKEKNEKLFKNYQTLKTSLASGAQVNPTTQDNKNPHVTSRATQLTTEKIRELENSLHEAKESAMHKESKIIKMQKELEVTNDIIAKLQAKVHESNKCLEKTKETIQVLQDKVALGAKPYKEEIEDLKMKLVKIDLEKMKNAKEFEKEISATKATVEYQKEVIRLLRENLRRSQQAQDTSVISEHTDPQPSNKPLTCGGGSGIVQNTKALILKSEHIRLEKEISKLKQQNEQLIKQKNELLSNNQHLSNEVKTWKERTLKREAHKQVTCENSPKSPKVTGTASKKKQITPSQCKERNLQDPVPKESPKSCFFDSRSKSLPSPHPVRYFDNSSLGLCPEVQNAGAESVDSQPGPWHASSGKDVPECKTQ", "notes": "codon-optimized cDNA; N-terminal PreScission-cleavable His6-eGFP tag from the pLIB-eGFP vector; source: insect cells (baculovirus made in Sf9, Tnao38 infected), purified (HisTrap, Superose 6 SEC); not shown: eGFP, N-terminal, kept"}, "B4": {"name": "BUBR1 pseudokinase domain (KinD, residues 705–1050) (domain or fragment, human, UniProt O60566 705-1050, looked up)", "chain": "EKLELTNETSENPTQSPWCSQYRRQLLKSLPELSASAELCIEDRPMPKLEIEKEIELGNEDYCIKREYLICEDYKLFWVAPRNSAELTVIKVSSQPVPWDFYINLKLKERLNEDFDHFCSCYQYQDGCIVWHQYINCFTLQDLLQHSEYITHEITVLIIYNLLTIVEMLHKAEIVHGDLSPRCLILRNRIHDPYDCNKNNQALKIVDFSYSVDLRVQLDVFTLSGFRTVQILEGQKILANCSSPYQVDLFGIADLAHLLLFKEHLQVFWDGSFWKLSQNISELKDGELWNKFFVRILNANDEATVSVLGELAAEMNGVFDTTFQSHLNKALWKVGKLTSPGALLFQ", "notes": "human BUBR1, pseudokinase domain, residues 705-1050; also called BUBR1 pseudo-kinase domain (KinD) construct; BUBR1 KinD"}}, "key": {"[1]": {"biological_target": "the molecule itself", "test": "AUC; sedimentation velocity, 42,000 rpm, 20 °C; 6 μM mCherry-CENP-F fragment alone, scanned at 587 nm; self-association"}, "BUBR1/BUB3 complex": {"biological_target": "T1, BUBR1/BUB3 complex (human | , UniProt O60566 1-1050; O43684 1-328)", "T1 construct": "human BUB1-related (BUBR1) mitotic checkpoint Ser/Thr kinase, full-length, co-expressed with BUB3; BUB3, co-expressed with BUBR1; also called dimeric BUBR1/BUB3 complex", "T1 sequence (O43684 whole entry, one chain of several)": "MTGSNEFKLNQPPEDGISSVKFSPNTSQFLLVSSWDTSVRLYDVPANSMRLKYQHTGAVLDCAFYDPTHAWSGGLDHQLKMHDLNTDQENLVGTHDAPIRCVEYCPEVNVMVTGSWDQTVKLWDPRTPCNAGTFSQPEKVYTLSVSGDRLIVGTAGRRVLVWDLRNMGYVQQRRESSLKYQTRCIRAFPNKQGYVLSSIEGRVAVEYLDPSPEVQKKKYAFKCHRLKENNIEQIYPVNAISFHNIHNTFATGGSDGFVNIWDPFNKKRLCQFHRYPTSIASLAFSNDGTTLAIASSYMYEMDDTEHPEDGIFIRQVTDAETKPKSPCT", "test": "SEC; analytical SEC; 4 μM BUB1 or BUBR1 constructs or BUB1/BUB3 or BUBR1/BUB3 complexes mixed with 16 μM CENP-E or CENP-F proteins in 30 μl; 4 °C; Superose 6 5/150 or Superdex 75 5/150; 50 mM Hepes pH 8.0, 100 mM NaCl, 5% glycerol, 0.5 mM TCEP; fractions by SDS-PAGE", "conditions": "both partners purified"}, "eGFP-CENP-E^2070-C": {"biological_target": "B3", "test": "SEC; analytical SEC; 4 μM BUB1 or BUBR1 constructs or BUB1/BUB3 or BUBR1/BUB3 complexes mixed with 16 μM CENP-E or CENP-F proteins in 30 μl; 4 °C; Superose 6 5/150 or Superdex 75 5/150; 50 mM Hepes pH 8.0, 100 mM NaCl, 5% glycerol, 0.5 mM TCEP; fractions by SDS-PAGE", "conditions": "both partners purified"}}}
{"binder": "B1", "values": [{"measurement": "stoichiometry N", "setting": "[1]", "result": 2}]}
{"binder": "B2", "values": [{"measurement": "stoichiometry N", "setting": "[1]", "result": 2}]}
{"binder": "B3", "values": [{"measurement": "binding result", "setting": "BUBR1/BUB3 complex", "result": "binds"}]}
{"binder": "B4", "values": [{"measurement": "binding result", "setting": "eGFP-CENP-E^2070-C", "result": "binds"}]}
